Reference: patent publication US20210324096A1 (Genmab, published 2021)

Experiments:
DR5ECD-FcHistag [1] = biological target: T1, DR5ECD-FcHistag (human); experiment: crossblock sandwich ELISA, antibody coated, competitor IgG1-DR5-CONA-K409R
T1 construct: 453 is the counted length of the printed entry; also called DR5ECD-FcHisCtag; DRSECD-FcHistag

[2] = biological target: T2, murine (Mus musculus) DR5, full-length (mouse, UniProt Q9QZM4 53-381); experiment: flow cytometry on transfected CHO cells (FIG. 5D)
T2 construct: also called mouse DR5

DR5ECD-FcHistag [3] = biological target: T1, DR5ECD-FcHistag; experiment: crossblock sandwich ELISA, antibody coated, competitor IgG1-hDR5-01-E430G
[4] = biological target: T3, cynomolgus monkey DR5 protein with deletion of amino acids 185-213 and death domain loss-of-function mutation … (cynomolgus monkey (Macaca fascicularis)); experiment: flow cytometry on cynomolgus DR5-transfected CHO cells, four experiments (SD 0.084)
T3 construct: Transiently expressed on CHO cells; also called Cyno DR5Mfdel-K420N; cynomolgus DR5-transfected CHO
T3 chain: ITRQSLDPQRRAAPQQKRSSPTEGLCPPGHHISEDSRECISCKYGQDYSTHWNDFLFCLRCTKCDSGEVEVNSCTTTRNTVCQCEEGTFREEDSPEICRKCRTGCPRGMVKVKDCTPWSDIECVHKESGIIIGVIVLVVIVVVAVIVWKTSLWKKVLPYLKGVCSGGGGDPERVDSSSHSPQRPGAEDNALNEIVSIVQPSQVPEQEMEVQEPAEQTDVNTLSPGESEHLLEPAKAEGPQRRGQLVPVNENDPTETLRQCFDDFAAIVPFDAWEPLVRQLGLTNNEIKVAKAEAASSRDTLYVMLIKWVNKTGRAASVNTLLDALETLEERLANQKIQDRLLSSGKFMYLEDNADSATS

[5] = biological target: T4, human DR5 (death receptor 5), full-length (human, UniProt O14763 56-440); experiment: flow cytometry on HCT 116 cells
T4 construct: also called TRAILR2; CD262

DR5ECD-FcHistag [6] = biological target: T1, DR5ECD-FcHistag; experiment: crossblock sandwich ELISA, antibody coated, competitor IgG1-DR5-chTRA8-F405L

B1: IgG1-DR5-chTRA8-F405L (antibody, name in EU numbering, V domains shown)
VH: EVMLVESGGGLVKPGGSLKLSCAASGFTFSSYVMSWVRQTPEKRLEWVATISSGGSYTYYPDSVKGRFTISRDNAKNTLYLQMSSLRSEDTAMYYCARRGDSMITTDYWGQGTTLTVSS
VL: DIVMTQSHKFMSTSVGDRVSITCKASQDVGTAVAWYQQKPGQSPKLLIYWASTRHTGVPDRFTGSGSGTDFTLTISNVQSEDLADYFCQQYSSYRTFGGGTKLEIKR
notes: F405L is counted by EU numbering; also called IgG1-chTRA8-F405L
Does B1 bind (DR5ECD-FcHistag [1])?
Result: binds

B2: IgG1-hDR5-05-F405L (antibody, name in EU numbering)
heavy: not shown
light: DIQLTQSPSSLSASVGDRVTITCSASSSVSYMYWYQQKPGKAPKPWIYRTSNLASGVPSRFSGSGSGTDFTLTISSLQPEDFATYYCQQYHSYPPTFGGGTKVEIKRTVAAPSVFIFPPSDEQLKSGTASVVCLLNNFYPREAKVQWKVDNALQSGNSQESVTEQDSKDSTYSLSSTLTLSKADYEKHKVYACEVTHQGLSSPVTKSFNRGEC
notes: IgG1,kappa; F405L is counted by EU numbering, not on the entry; also called humanized DR5-05
Does B2 bind [2]?
Result: no binding (tested: 10 µg/mL)

B3: IgG1-hDR5-05-E430G (antibody)
heavy: not shown
light: B2 light
notes: IgG1,kappa
Does B3 bind (DR5ECD-FcHistag [3])?
Result: binds

What about the EC50 [4] of the same binder?
Its EC50 is 0.17 µg/mL.

B4: IgG1-hDR5-05-N55D-F405L (antibody, V domains shown)
VH: QVQLVQSGAEVKKPGASVKVSCKASGFNIKDTHMHWVRQAPGQRLEWIGRIDPADGNTEYDQKFQGRVTITVDTSASTAYMELSSLRSEDTAVYYCARWGTNVYFAYWGQGTLVTVSS
VL: DIQLTQSPSSLSASVGDRVTITCSASSSVSYMYWYQQKPGKAPKPWIYRTSNLASGVPSRFSGSGSGTDFTLTISSLQPEDFATYYCQQYHSYPPTFGGGTKVEIKR
notes: IgG1,kappa; deamidation-mimicking variant
Does B4 bind [5]?
Result: binds

B5: IgG1-DR5-CONA-K409R (antibody, V domains shown)
VH: QVQLQESGPGLVKPSQTLSLTCTVSGGSISSGDYFWSWIRQLPGKGLECIGHIHNSGTTYYNPSLKSRVTISVDTSKKQFSLRLSSVTAADTAVYYCARDRGGDYYYGMDVWGQGTTVTVSS
VL: EIVLTQSPGTLSLSPGERATLSCRASQGISRSYLAWYQQKPGQAPSLLIYGASSRATGIPDRFSGSGSGTDFTLTISRLEPEDFAVYYCQQFGSSPWTFGQGTKVEIK
notes: Expressed as IgG1,kappa with K409R (EU); also called IgG1-CONA-K409R; conatumumab variant
Does B5 bind (DR5ECD-FcHistag [6])?
Result: binds
